Experimental data taken from the RNAGym collection of RNA variant scans (doi:10.1073/pnas.2313332121).

B1: TPR t1 (parent)
chain: GACCAAUCUGCCCUCAGAGCUCGAGAACAUCUUCGGAUGCAGAGGAGGCAGGCUUCGGUGGCGCGAUAGCGCCAACGUCCUCAACCUCCAAUGCAUCCCACCACAUGAUGAUGCCUGAAGAGCCUUGGUUUUUUG

Variants of: B1
Experiment: polymerase ribozyme fitness, log enrichment relative to wild type (log ratio); higher = more active; in vitro selection for triplet polymerase activity
Procedure, shortened: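 Input and output libraries were sequenced on Illumina after a single in vitro selection round, run in triplicate on PCR-built, transcribed mutant libraries of each subunit of a heterodimeric triplet polymerase ribozyme. Selection annealed libraries to a biotinylated primer, the partner subunit and triplets, incubated them frozen at −7 °C, then gel-excised extended constructs for streptavidin-bead capture and RT-PCR. Genotypes with ≥10 input reads and ≥1 read per output were kept. Fitness is the logarithm, taken in base 2, of genotype enrichment divided by wild-type enrichment, using inverse-variance-weighted replicate averages.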

**Q.** For U87A C94A, which “polymerase ribozyme fitness (log ratio)” value is on record?
**A.** -0.438

**Q.** With A83U C99A G117C U129G as the variant, how does the “polymerase ribozyme fitness (log ratio)” value read?
**A.** -5.87

**Q.** Which “polymerase ribozyme fitness (log ratio)” value does the source give for C85A A111U here?
**A.** -4.18

**Q.** With U87G U96A C102A as the variant, how does the “polymerase ribozyme fitness (log ratio)” value read?
**A.** -2.66

**Q.** For C85U A91C, which “polymerase ribozyme fitness (log ratio)” value is on record?
**A.** -2.1

**Q.** With C85U G93A G120U as the variant, how does the “polymerase ribozyme fitness (log ratio)” value read?
**A.** -0.509

**Q.** With C86A A95C as the variant, how does the “polymerase ribozyme fitness (log ratio)” value read?
**A.** -2.08

**Q.** Which “polymerase ribozyme fitness (log ratio)” value does the source give for A84U A103U G110C here?
**A.** -3.57

**Q.** For A84G G120A C123A, which “polymerase ribozyme fitness (log ratio)” value is on record?
**A.** -0.958

**Q.** For A84G G93U G120U, which “polymerase ribozyme fitness (log ratio)” value is on record?
**A.** -2.23

**Q.** With C86U C101G as the variant, how does the “polymerase ribozyme fitness (log ratio)” value read?
**A.** -2.55

**Q.** With C85G U112A C115U as the variant, how does the “polymerase ribozyme fitness (log ratio)” value read?
**A.** -2.5

**Q.** For A84C C94A, which “polymerase ribozyme fitness (log ratio)” value is on record?
**A.** -1.23

**Q.** With C88A C98A C124G as the variant, how does the “polymerase ribozyme fitness (log ratio)” value read?
**A.** -3.46

**Q.** Which “polymerase ribozyme fitness (log ratio)” value does the source give for C86A G93C here?
**A.** -2.88

**Q.** Which “polymerase ribozyme fitness (log ratio)” value does the source give for C89A C102G here?
**A.** -6.86

**Q.** Which “polymerase ribozyme fitness (log ratio)” value does the source give for C85A G128U here?
**A.** -4.02

**Q.** For A83C U112G, which “polymerase ribozyme fitness (log ratio)” value is on record?
**A.** -1.81

**Q.** With A83C G128C as the variant, how does the “polymerase ribozyme fitness (log ratio)” value read?
**A.** -2.09

**Q.** With A84U U112A G128U as the variant, how does the “polymerase ribozyme fitness (log ratio)” value read?
**A.** -1.28

**Q.** For A83G C114A, which “polymerase ribozyme fitness (log ratio)” value is on record?
**A.** -3.07

**Q.** For C88A U106A G128U, which “polymerase ribozyme fitness (log ratio)” value is on record?
**A.** -3.15

**Q.** With C85U A121G as the variant, how does the “polymerase ribozyme fitness (log ratio)” value read?
**A.** 1.61

**Q.** For A84C G93A C101U, which “polymerase ribozyme fitness (log ratio)” value is on record?
**A.** -1.17

**Q.** With C86G G122U as the variant, how does the “polymerase ribozyme fitness (log ratio)” value read?
**A.** -1.75

**Q.** For U87A G113C U130A, which “polymerase ribozyme fitness (log ratio)” value is on record?
**A.** -2.96

**Q.** For A84G A91U, which “polymerase ribozyme fitness (log ratio)” value is on record?
**A.** -3.76

**Q.** With C85U U87A C89U as the variant, how does the “polymerase ribozyme fitness (log ratio)” value read?
**A.** -2.94

**Q.** Which “polymerase ribozyme fitness (log ratio)” value does the source give for A83U A100C C114U here?
**A.** -3.1

**Q.** With C89G C94A as the variant, how does the “polymerase ribozyme fitness (log ratio)” value read?
**A.** -2.52

**Q.** With C89G C94U as the variant, how does the “polymerase ribozyme fitness (log ratio)” value read?
**A.** -0.951

**Q.** With C88G U112A as the variant, how does the “polymerase ribozyme fitness (log ratio)” value read?
**A.** 1.18

**Q.** Which “polymerase ribozyme fitness (log ratio)” value does the source give for U87A A108G C114A U116A here?
**A.** -7.38

**Q.** With U87C G113A U133A as the variant, how does the “polymerase ribozyme fitness (log ratio)” value read?
**A.** -0.981

**Q.** Which “polymerase ribozyme fitness (log ratio)” value does the source give for C86U C98U G117C here?
**A.** -5.99

**Q.** Which “polymerase ribozyme fitness (log ratio)” value does the source give for C85G C94U here?
**A.** -2.67

**Q.** For C86G C123U, which “polymerase ribozyme fitness (log ratio)” value is on record?
**A.** 0.323

**Q.** With C86G C123A as the variant, how does the “polymerase ribozyme fitness (log ratio)” value read?
**A.** -0.0336

**Q.** For C88U A100G A108G U133G, which “polymerase ribozyme fitness (log ratio)” value is on record?
**A.** -5.29

**Q.** With C85U C86A C94G G117C as the variant, how does the “polymerase ribozyme fitness (log ratio)” value read?
**A.** -6.16

**Q.** Which “polymerase ribozyme fitness (log ratio)” value does the source give for U87C C89A G113A here?
**A.** -2.28

**Q.** Which “polymerase ribozyme fitness (log ratio)” value does the source give for C88U C89G U92G here?
**A.** -2.44

**Q.** For C89A A95C, which “polymerase ribozyme fitness (log ratio)” value is on record?
**A.** -3.6

**Q.** For C89A G127C U133G, which “polymerase ribozyme fitness (log ratio)” value is on record?
**A.** -4.42

**Q.** Which “polymerase ribozyme fitness (log ratio)” value does the source give for A83G G120U G122U here?
**A.** -0.467

**Q.** Which “polymerase ribozyme fitness (log ratio)” value does the source give for C86G A90C U96C U112A C124A here?
**A.** -1.78

**Q.** Which “polymerase ribozyme fitness (log ratio)” value does the source give for C88U U106A U130A here?
**A.** -0.0999

**Q.** Which “polymerase ribozyme fitness (log ratio)” value does the source give for C88A C114U here?
**A.** -2.51

**Q.** With U87C C102U U112A G122A as the variant, how does the “polymerase ribozyme fitness (log ratio)” value read?
**A.** -0.872

**Q.** With A83G G120U as the variant, how does the “polymerase ribozyme fitness (log ratio)” value read?
**A.** -0.6

**Q.** Which “polymerase ribozyme fitness (log ratio)” value does the source give for C85U C89G here?
**A.** -1.76

**Q.** With C88A U129A as the variant, how does the “polymerase ribozyme fitness (log ratio)” value read?
**A.** -2.21

**Q.** Which “polymerase ribozyme fitness (log ratio)” value does the source give for C88A U129G here?
**A.** -1.51

**Q.** With A84C U130A as the variant, how does the “polymerase ribozyme fitness (log ratio)” value read?
**A.** -0.44

**Q.** With A84U A121C as the variant, how does the “polymerase ribozyme fitness (log ratio)” value read?
**A.** 2.22

**Q.** Which “polymerase ribozyme fitness (log ratio)” value does the source give for A83G C85A here?
**A.** -2.68

**Q.** Which “polymerase ribozyme fitness (log ratio)” value does the source give for C88G A91U U112A here?
**A.** -1.38

**Q.** With C85A G117C as the variant, how does the “polymerase ribozyme fitness (log ratio)” value read?
**A.** -5.07

**Q.** For C88U C99U, which “polymerase ribozyme fitness (log ratio)” value is on record?
**A.** -2.42

**Q.** With A84G G120A U130G as the variant, how does the “polymerase ribozyme fitness (log ratio)” value read?
**A.** -0.15

**Q.** With C86A C104U as the variant, how does the “polymerase ribozyme fitness (log ratio)” value read?
**A.** 0.0777

**Q.** For C86G U92C, which “polymerase ribozyme fitness (log ratio)” value is on record?
**A.** -2.6

**Q.** With C88U C114G as the variant, how does the “polymerase ribozyme fitness (log ratio)” value read?
**A.** -3.05

**Q.** Which “polymerase ribozyme fitness (log ratio)” value does the source give for C88U C114U here?
**A.** -1.17

**Q.** For A83U U132C, which “polymerase ribozyme fitness (log ratio)” value is on record?
**A.** -0.0917

**Q.** With C89G A105G as the variant, how does the “polymerase ribozyme fitness (log ratio)” value read?
**A.** -3.85

**Q.** With C86A G107U A121U U132C as the variant, how does the “polymerase ribozyme fitness (log ratio)” value read?
**A.** -3.32

**Q.** With C86G A103G as the variant, how does the “polymerase ribozyme fitness (log ratio)” value read?
**A.** -5.43

**Q.** Which “polymerase ribozyme fitness (log ratio)” value does the source give for C85A C88U here?
**A.** -2.64

**Q.** For C88U C98G C114G, which “polymerase ribozyme fitness (log ratio)” value is on record?
**A.** -6.17

**Q.** For C85A G110A, which “polymerase ribozyme fitness (log ratio)” value is on record?
**A.** -2.98

**Q.** Which “polymerase ribozyme fitness (log ratio)” value does the source give for C88G G110U here?
**A.** -2.67

**Q.** For A84G C115U, which “polymerase ribozyme fitness (log ratio)” value is on record?
**A.** -2.86

**Q.** With A83G A84C as the variant, how does the “polymerase ribozyme fitness (log ratio)” value read?
**A.** -1.03

**Q.** For C88A C101G U116C, which “polymerase ribozyme fitness (log ratio)” value is on record?
**A.** -2.59

**Q.** With C88A G107U as the variant, how does the “polymerase ribozyme fitness (log ratio)” value read?
**A.** -4.63

**Q.** For A84U C114U U126G, which “polymerase ribozyme fitness (log ratio)” value is on record?
**A.** -6.08

**Q.** Which “polymerase ribozyme fitness (log ratio)” value does the source give for U87G C102U here?
**A.** -0.897

**Q.** With C89G as the variant, how does the “polymerase ribozyme fitness (log ratio)” value read?
**A.** -1.19

**Q.** With C89A as the variant, how does the “polymerase ribozyme fitness (log ratio)” value read?
**A.** -1.27

**Q.** Which “polymerase ribozyme fitness (log ratio)” value does the source give for A84U U129A here?
**A.** -1.65

**Q.** With U87C C114U as the variant, how does the “polymerase ribozyme fitness (log ratio)” value read?
**A.** -1.5

**Q.** Which “polymerase ribozyme fitness (log ratio)” value does the source give for C86U A111U here?
**A.** -2.11

**Q.** Which “polymerase ribozyme fitness (log ratio)” value does the source give for C88U C102U here?
**A.** -1.5
